Test results published in the RNAGym collection of RNA variant scans (doi:10.7554/elife.90254).

B1: LINE1-full (parent)
chain: UACGUAGGUGGUUUUCCCCUGAUAGUGCUAAGGGGGCCUGGAAGUUUGGACUGGGCAGAGCUCAACACAGCGUGGCAAAGUGGCUGUGGCUAGACUGCCUCUCUGGAUUCCUCGUCACUCAGCAGGGCAUCUCUGAGAGAAAUGCC

Variants of: B1
Assay: self-cleavage, relative activity (ratio to wild type); higher = more cleavage; in vitro, sequencing; the parent is a self-cleaving ribozyme
In the case of U62A A94G, the self-cleavage is reported as 0.04.
U62A A107G showed a self-cleavage of 0.06.
With U62A A121G the self-cleavage was 0.06.
Work on U62A A140G yielded a self-cleavage of 0.04.
Variant U62A A140U has a self-cleavage of 0.03.
For U62A A141U, the self-cleavage was 0.01.
For U62A C71G, the self-cleavage was 0.05.
Work on U62A C71U yielded a self-cleavage of 0.
Work on U62A C116A yielded a self-cleavage of 0.05.
U62A C131U showed a self-cleavage of 0.02.
With U62A C133U the self-cleavage was 0.04.
In the case of U62A G127U, the self-cleavage is reported as 0.02.
Variant U62A U73A has a self-cleavage of 0.04.
Work on U62A U81G yielded a self-cleavage of 0.02.
U62A U87A showed a self-cleavage of 0.04.
With U62A U91C the self-cleavage was 0.04.
For U62A U96A, the self-cleavage was 0.04.
U62A U96C showed a self-cleavage of 0.06.
U62A U100A showed a self-cleavage of 0.05.
U62A U100C showed a self-cleavage of 0.23.
For U62A U102A, the self-cleavage was 0.01.
U62A U102C showed a self-cleavage of 0.01.
U62A U102G gave a self-cleavage of 0.08.
U62A U108C gave a self-cleavage of 0.04.
U62A U109C showed a self-cleavage of 0.05.
With U62A U112A the self-cleavage was 0.05.
With U62A U112C the self-cleavage was 0.04.
With U62A U119C the self-cleavage was 0.03.
For U62A U130C, the self-cleavage was 0.05.
Work on U62A U132C yielded a self-cleavage of 0.06.
U62A U134C gave a self-cleavage of 0.05.
In the case of U62A U134G, the self-cleavage is reported as 0.1.
With U62A U143A the self-cleavage was 0.04.
For U62C, the self-cleavage was 0.05.
U62C A64G showed a self-cleavage of 0.08.
Work on U62C A65G yielded a self-cleavage of 0.1.
Work on U62C A67G yielded a self-cleavage of 0.09.
For U62C A67U, the self-cleavage was 0.05.
U62C A69G showed a self-cleavage of 0.06.
Variant U62C A77C has a self-cleavage of 0.05.
Work on U62C A78C yielded a self-cleavage of 0.
Variant U62C A78G has a self-cleavage of 0.05.
Variant U62C A78U has a self-cleavage of 0.04.
Variant U62C A79G has a self-cleavage of 0.06.
With U62C A79U the self-cleavage was 0.03.
U62C A92G showed a self-cleavage of 0.04.
U62C A92U showed a self-cleavage of 0.04.
U62C A94U showed a self-cleavage of 0.08.
For U62C A107G, the self-cleavage was 0.06.
For U62C A117C, the self-cleavage was 0.03.
U62C A117G gave a self-cleavage of 0.1.
For U62C A117U, the self-cleavage was 0.03.
U62C A121C showed a self-cleavage of 0.15.
With U62C A124G the self-cleavage was 0.08.
U62C A129C gave a self-cleavage of 0.19.
U62C A136G showed a self-cleavage of 0.06.
U62C A138G gave a self-cleavage of 0.06.
With U62C A140G the self-cleavage was 0.04.
U62C A141G gave a self-cleavage of 0.03.
In the case of U62C C63A, the self-cleavage is reported as 0.01.
U62C C63U showed a self-cleavage of 0.07.
For U62C C66U, the self-cleavage was 0.03.
U62C C71U gave a self-cleavage of 0.05.
In the case of U62C C99A, the self-cleavage is reported as 0.03.
Work on U62C C101A yielded a self-cleavage of 0.04.
U62C C101U showed a self-cleavage of 0.07.
In the case of U62C C103U, the self-cleavage is reported as 0.03.
Variant U62C C111U has a self-cleavage of 0.02.
U62C C113U showed a self-cleavage of 0.
For U62C C120U, the self-cleavage was 0.06.
U62C C128A showed a self-cleavage of 0.05.
U62C C131A gave a self-cleavage of 0.03.
U62C C133A gave a self-cleavage of 0.06.
In the case of U62C G70A, the self-cleavage is reported as 0.01.
For U62C G72C, the self-cleavage was 0.03.
U62C G72U showed a self-cleavage of 0.03.
U62C G82A gave a self-cleavage of 0.04.
U62C G93A gave a self-cleavage of 0.06.
U62C G97A gave a self-cleavage of 0.03.
In the case of U62C G105A, the self-cleavage is reported as 0.03.
In the case of U62C G106A, the self-cleavage is reported as 0.08.
For U62C G125A, the self-cleavage was 0.06.
Work on U62C G126A yielded a self-cleavage of 0.04.
